According to article PMC3763369 (Structure(London, England:1993), 2013):

Legend:
[1] = target: T1, FANCM CTD;FAAP24 (human?;human?, UniProt Q8IYD8;Q9BTP7 1799-2048;1-215, |); assay: X-ray crystallography
T1 sequence 1: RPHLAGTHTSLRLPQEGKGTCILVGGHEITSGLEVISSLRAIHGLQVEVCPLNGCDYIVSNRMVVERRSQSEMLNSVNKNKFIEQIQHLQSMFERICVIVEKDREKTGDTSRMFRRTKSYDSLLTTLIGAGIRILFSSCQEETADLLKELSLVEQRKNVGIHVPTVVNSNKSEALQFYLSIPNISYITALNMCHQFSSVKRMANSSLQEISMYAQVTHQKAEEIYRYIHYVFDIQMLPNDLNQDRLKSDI
T1 sequence 2: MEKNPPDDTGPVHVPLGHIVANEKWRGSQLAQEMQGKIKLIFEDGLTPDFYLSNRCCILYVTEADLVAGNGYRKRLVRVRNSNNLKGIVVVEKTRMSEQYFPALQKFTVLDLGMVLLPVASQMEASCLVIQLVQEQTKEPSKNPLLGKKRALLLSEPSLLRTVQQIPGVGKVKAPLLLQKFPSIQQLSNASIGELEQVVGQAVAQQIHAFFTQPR

[2] = target: T2, FANCM C-terminal fragment (FANCMCTD), residues 1,799-2,048 (human, UniProt Q8IYD8 1799-2048); assay: crystal structure
T2 sequence (looked up): T1 sequence 1

[3] = target: full-length FANCM (N-terminal Flag-tag, C-terminal 8His-tag) (human, UniProt Q8IYD8 1-2048); assay: negative-stain single particle electron microscopy

B1: 11 bp crystallization duplex (dsDNA)
DNA 1: GATGATGCTGA
DNA 2: TCAGCATCATC
B1: binds [1].

B2: FAAP24 (full length), partner in the FANCMCTD-FAAP24 complex (natural protein, human, UniProt Q9BTP7 1-215, looked up)
chain: T1 sequence 2
B2: binds [2].

B3: FAAP24, untagged, co-expressed with full-length FANCM (natural protein, human, UniProt Q9BTP7 1-215, looked up)
chain: T1 sequence 2
B3: binds [3].
